In US20250236650A1 one finds EC50 (read off the curve) data, which are given here for four substances.

mouse anti-mouse CTLA-4 antibody 9D9, mouse IgG2a isotype, sequence (light): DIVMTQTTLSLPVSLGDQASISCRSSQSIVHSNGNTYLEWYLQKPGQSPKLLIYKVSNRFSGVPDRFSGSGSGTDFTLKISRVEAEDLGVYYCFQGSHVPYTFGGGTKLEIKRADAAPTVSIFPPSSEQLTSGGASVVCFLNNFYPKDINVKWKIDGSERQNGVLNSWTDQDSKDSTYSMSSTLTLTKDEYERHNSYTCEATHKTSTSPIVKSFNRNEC
mouse anti-mouse CTLA-4 antibody 9D9, mouse IgG2a isotype, sequence (heavy): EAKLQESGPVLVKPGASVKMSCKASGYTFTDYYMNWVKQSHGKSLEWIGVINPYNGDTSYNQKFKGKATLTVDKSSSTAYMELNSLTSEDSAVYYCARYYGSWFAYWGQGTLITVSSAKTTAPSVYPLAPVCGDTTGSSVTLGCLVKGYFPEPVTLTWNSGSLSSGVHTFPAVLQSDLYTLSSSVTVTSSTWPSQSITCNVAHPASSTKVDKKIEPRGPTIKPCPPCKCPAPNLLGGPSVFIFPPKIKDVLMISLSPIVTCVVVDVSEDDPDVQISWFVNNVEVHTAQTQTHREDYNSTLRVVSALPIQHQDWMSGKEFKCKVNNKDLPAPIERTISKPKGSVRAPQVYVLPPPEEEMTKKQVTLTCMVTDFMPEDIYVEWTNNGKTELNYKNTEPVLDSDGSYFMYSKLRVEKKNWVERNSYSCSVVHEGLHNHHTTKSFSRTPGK
mouse anti-mouse CTLA-4 antibody 9D9, mouse IgG2b isotype (original isotype, derived from the hybridoma), sequence (light): as the sequence (light) above
mouse anti-mouse CTLA-4 antibody 9D9, mouse IgG2b isotype (original isotype, derived from the hybridoma), sequence (heavy): as the sequence (heavy) above
mouse anti-mouse CTLA-4 antibody 9D9, mouse IgG1 isotype, sequence (light): as the sequence (light) above
mouse anti-mouse CTLA-4 antibody 9D9, mouse IgG1 isotype, sequence (heavy): as the sequence (heavy) above

This experiment addresses murine CTLA-4 fused to CD3ζ, expressed on the murine T-cell hybridoma 58α-β-CTLA-4/CD3ζ (murine) (UniProt P09793). Description: flow cytometry on 58α-β-CTLA-4/CD3ζ cells, R-PE donkey anti-mouse IgG secondary antibody, MFI.
As to “mouse anti-mouse CTLA-4 antibody 9D9, mouse IgG1 isotype”, the EC50 (read off the curve) (usually the concentration giving half of the maximal effect) was 0.6 µg/mL.

Consider “mouse anti-mouse CTLA-4 antibody 9D9, mouse IgG1 isotype containing a D265A mutation (from UniProt P01868 1-324)”, for which the EC50 (read off the curve) is 0.2 µg/mL. With “mouse anti-mouse CTLA-4 antibody 9D9, mouse IgG2a isotype” the figure was 0.7 µg/mL; with “mouse anti-mouse CTLA-4 antibody 9D9, mouse IgG2b isotype (original isotype, derived from the hybridoma)”, 0.4 µg/mL.
